The text below walks through data of publication PMC9603081, “Transcription Factors as Important Regulators of Changes in Behavior through Domestication of Gray Rats: Quantitative Data from RNA Sequencing”.

B1: HBB rs33980857 T-29A (dsDNA)
DNA 1: CAGGGCTGGGCAAAAAAGTCAGGGCA
DNA 2: TGCCCTGACTTTTTTGCCCAGCCCTG
B2: HBB rs34598529 A-28G (row 2) (dsDNA)
DNA 1: CAGGGCTGGGCATAGAAGTCAGGGCA
DNA 2: TGCCCTGACTTCTATGCCCAGCCCTG
B3: HBB rs34598529 A-28C (dsDNA)
DNA 1: CAGGGCTGGGCATACAAGTCAGGGCA
DNA 2: TGCCCTGACTTGTATGCCCAGCCCTG
B4: HBB rs33980857 T-29G (dsDNA)
DNA 1: CAGGGCTGGGCAGAAAAGTCAGGGCA
DNA 2: TGCCCTGACTTTTCTGCCCAGCCCTG
B5: HBD WT (dsDNA)
DNA 1: ACAGGACCAGCATAAAAGGCAGGGCA
DNA 2: TGCCCTGCCTTTTATGCTGGTCCTGT
B6: HBB rs281864525 A-25C (dsDNA)
DNA 1: CAGGGCTGGGCATAAACGTCAGGGCA
DNA 2: TGCCCTGACGTTTATGCCCAGCCCTG
B7: HBB rs33931746 A-27T (dsDNA)
DNA 1: CAGGGCTGGGCATATAAGTCAGGGCA
DNA 2: TGCCCTGACTTATATGCCCAGCCCTG
B8: HBB WT (dsDNA)
DNA 1: CAGGGCTGGGCATAAAAGTCAGGGCA
DNA 2: TGCCCTGACTTTTATGCCCAGCCCTG
B9: HBB rs34500389 C-32T (dsDNA)
DNA 1: CAGGGCTGGGTATAAAAGTCAGGGCA
DNA 2: TGCCCTGACTTTTATACCCAGCCCTG
B10: HBB rs63750953 del -25AA (dsDNA)
DNA 1: CCAGGGCTGGGCATAAGTCAGGGCAG
DNA 2: CTGCCCTGACTTATGCCCAGCCCTGG
B11: HBB rs34598529 A-28G (row 10) (dsDNA)
DNA 1: CAGGGCTGGGCATGAAAGTCAGGGCA
DNA 2: TGCCCTGACTTTCATGCCCAGCCCTG
B12: HBD rs34166473 T-30C (dsDNA)
DNA 1: ACAGGACCAGCACAAAAGGCAGGGCA
DNA 2: TGCCCTGCCTTTTGTGCTGGTCCTGT
B13: HBD rs35518301 A-31G (dsDNA)
DNA 1: ACAGGACCAGCGTAAAAGGCAGGGCA
DNA 2: TGCCCTGCCTTTTACGCTGGTCCTGT
B14: HBB rs33980857 T-29C (dsDNA)
DNA 1: CAGGGCTGGGCACAAAAGTCAGGGCA
DNA 2: TGCCCTGACTTTTGTGCCCAGCCCTG
B15: ASCL3 WT (dsDNA)
DNA 1: TCGAAAAATAAAATAAAATAAAACAT
DNA 2: ATGTTTTATTTTATTTTATTTTTCGA

T1 sequence (P20226 whole entry): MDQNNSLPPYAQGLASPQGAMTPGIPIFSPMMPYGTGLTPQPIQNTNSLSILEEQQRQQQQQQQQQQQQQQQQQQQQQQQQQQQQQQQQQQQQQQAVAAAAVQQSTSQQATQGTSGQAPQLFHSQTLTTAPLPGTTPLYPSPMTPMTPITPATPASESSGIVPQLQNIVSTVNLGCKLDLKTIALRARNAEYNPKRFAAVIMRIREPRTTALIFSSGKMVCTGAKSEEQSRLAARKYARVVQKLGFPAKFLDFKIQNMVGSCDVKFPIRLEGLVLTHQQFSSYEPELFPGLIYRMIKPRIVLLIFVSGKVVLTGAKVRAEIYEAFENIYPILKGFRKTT
TBP (TATA-binding protein) (Homo sapiens), sequence (P20226 whole entry): as above

The first data set addresses T1, TBP (TATA-binding protein) (Homo sapiens, UniProt P20226 1-339). Kind of data set: EMSA; EMSA association kinetics, 0.3 nM TBP, four ODN concentrations; buffer, salt, pH and temperature not in the material. The settings on record: protein: recombinant; label: 32P both strands; blunt.
B1: the equilibrium dissociation constant (Kd) worked out at 110 nM.

For the molecule B2, the dissociation constant (Kd) is 557 nM.

As for B3, the dissociation constant Kd came to 499 nM.

Regarding B4, the Kd was 110 nM.

For B5, the dissociation constant Kd was found to be 70.3 nM.

On to B6, for which the dissociation constant (Kd) was determined as 150 nM.

Regarding B7, the dissociation constant (Kd) was found to be 59.9 nM.

In the case of B8, the dissociation constant (Kd) was 50.1 nM.

In the case of B9, the dissociation constant Kd was 31.9 nM.

Take B10: the Kd worked out at 150 nM.

On to B11, for which the Kd came out at 499 nM.

For B12, the Kd worked out at 170 nM.

B13: the Kd is 99.8 nM.

Take B14: the Kd came to 140 nM.

A further data set addresses TBP (TATA-binding protein) (Homo sapiens) (UniProt P20226). Kind of data set: EMSA. As to conditions: EMSA association kinetics, 0.3 nM TBP, four ODN concentrations; buffer, salt, pH and temperature not in the material.
Take “TCGAAAAATAAAACAAAATAAAACAT (double strand) [ASCL3 rs1049743008 T-45c]”: the equilibrium dissociation constant (Kd) worked out at 17 nM.

The target in the next data set is T1, TBP (TATA-binding protein). The data set can be described thus: EMSA; association kinetics, 0.3 nM TBP; Table S2 in vitro -ln(KD) 15.05 disagrees; EMSA association kinetics, 0.3 nM TBP, four ODN concentrations; buffer, salt, pH and temperature not in the material. The settings on record: protein: recombinant; label: 32P both strands; blunt.
As for B15, the equilibrium dissociation constant (Kd) is 12 nM.
